# Source: publication PMC10551642, “Functional plasticity in chromosome–microtubule coupling on the evolutionary time scale” (Life Science Alliance, 2023)
# B1: S. cerevisiae Dam1 complex containing Dad2-FL (DASH^WT) (complex)
# chain 1: MMASTSNDEEKLISTTDKYFIEQRNIVLQEINETMNSILNGLNGLNISLESSIAVGREFQSVSDLWKTLYDGLESLSDEAPIDEQPTLSQSKTK
# chain 2: MDSIDEQIAIKRKELQSLQKITSLTDGLKIQLTELNEQIKEMGMNADSVAQLMNNWDSIINNISQASLGLLQYAEGDYEIGPWKDSKKKESEQSNETGLEAQENDKNDEDNDEDEDLVPLPETMVRIRVDGNE
# chain 3: MEHNLSPLQQEVLDKYKQLSLDLKALDETIKELNYSQHRQQHSQQETVSPDEILQEMRDIEVKIGLVGTLLKGSVYSLILQRKQEQESLGSNSK
# chain 4: MENPHEQVQANILSRIIGNVKRLNESVAILNQELVTINNRNKNLEIMGAICDNYHSSVQFNLEATNNKKPPL
# chain 5: MSEDKAKLGTTRSATEYRLSIGSAPTSRRSSMGESSSLMKFADQEGLTSSVGEYNENTIQQLLLPKIRELSDSIITLDSNFTRLNFIHESLADLNESLGSLLYGIMSNSWCVEFSQAPHDIQDDLIAIKQLKSLEDEKNNLVMELSNMERGIKRKKDEQGENDLAKASQNKQFNQPLFPSSQVRKYRSYDNRDKRKPSKIGNNLQVENEEDYEDDTSSEASFVLNPTNIGMSKSSQGHVTKTTRLNNNTNSKLRRKSILHTIRNSIASGADLPIENDNVVNLGDLHPNNRISLGSGAARVVNGPVTKNRNSMFSGRAERKPTESRHSVAKKTEKKINTRPPFR
# chain 6: MSEQSQLDDSTIDKLIPQIFNEMRSNLNNTTNKFPKSTGGGASDNISANSNSIRSFNSITTQSLLKESESLDKITAMIKNVTAALKNNLPVYVNQVHEVCKSTNSILDSWINIHSQAGYIHKLMSDQTYLKLINDRLHNENVNTNDEDGSTLHNVIALKKKEILDLRQKLENRKGEKDAAPAKPPNQGLNPRYGVQSGRRPVPSAGISNNGRVRKTHVPASKRPSGIPRVTNRWTKPTASSSRKMFR
# chain 7: MDSASKEETLEKLDQEITVNLQKIDSNLSFCFHKITQDIIPHVATYSEICERIMDSTEWLGTMFQETGLVNLQANAAAPVGNAPVKSLVSNNVGIFPTSAEEASRQSQTDNGPNEADSAVHVNRDVHSMFNNDSIDDFHTANITSTGQILKLPDSSDEDTGSEAVPSREQTDLTGEGHGGADDEQDESTIQRQSRKRKISLLLQQQYGSSSSMVPSPIVPNKMRKQLAHEEHINNDGDNDDENSNNIESSPLKQGHHHPKGQADDNNEGPDEEESTKEVPKPGTIIHFSTNR
# chain 8: MNANKQRQYNQLAHELRELQTNLQETTKQLDIMSKQCNENLVGQLGKVHGSWLIGSYIYYMEQMLGKTQ
# chain 9: MTDALEQSVLALEGTVSVLKDSVESLKCANEPSTNLASTMLQTKRVFRLVPEYDVERSKLDLIEEVEPLVRTLGDKLRKSMGRMQRELDTLQQTYELNDLRLKKNISMDDDDALNSPDMGQEYEGRDADDVVMMASSTNEELEELKKLKEKKKQLENKLEILKQK
# chain 10: MGESLDRCIDDINRAVDSMSTLYFKPPGIFHNAILQGASNKASIRKDITRLIKDCNHDEAYLLFKVNPEKQSVSRRDGKEGVFDYVIKRDTDMKRNRRLGRPGEKPIIHVPKEVYLNKDRLDLNNKRRRTATTSGGGLNGFIFDTDLIGSSVISNSSSGTFKALSAVFKDDPQIQRLLYALENGSVLMEEESNNQRRKTIFVEDFPTDLILKVMAEVTDLWPLTEFKQDYDQLYHNYEQLSSKLRFIKKEVLLQDDRLKTMSQYHPSSSHDVAKIIRKEKDEIRRLEMEIANLQE
# notes: Dad1, S. cerevisiae, subunit of the Dam1 (DASH) complex; Dad2, S. cerevisiae, subunit of the Dam1 (DASH) complex; Dad2-FL; Dad3, S. cerevisiae, subunit of the Dam1 (DASH) complex; Dad4, S. cerevisiae, subunit of the Dam1 (DASH) complex; Dam1, S. cerevisiae, subunit of the Dam1 (DASH) complex; Duo1, S. cerevisiae, subunit of the Dam1 (DASH) complex; Ask1, S. cerevisiae, subunit of the Dam1 (DASH) …
# Target: the molecule itself
# Assay: negative stain electron microscopy; Dam1 complex-MT reaction mix adsorbed on glow-discharged grids, washed with 25 mM HEPES pH 7.4, 500 mM NaCl, 1 mM EDTA, stained with 0.7% uranyl formate; rings of the complex around MTs
protein,measurement,value
B1,binding result,binds
